Experimental data reported in article PMC3220798 (2011).

How the values were obtained:
PvdL module 1 (PvdLM1) = PvdL module 1 (PvdLM1) (Pseudomonas aeruginosa, UniProt Q9I157); test: ATP/[…]-pyrophosphate exchange assay; assay type: biochemical
PvdQ [1] = molecular target: T1, PvdQ (Pseudomonas aeruginosa, UniProt Q9I194); test: co-crystal structure; assay type: biochemical
PvdQ [2] = molecular target: T1, PvdQ; test: crystal structure, co-purified ligand; assay type: binding
[3] = tested on: CCCCCCCCCCCC(=O)Oc1ccc([N+](=O)[O-])cc1; test: purified protein
[4] = tested on: CCCCCCCCCCCC(=O)Oc1ccc2c(C)cc(=O)oc2c1; test: purified protein
[5] = tested on: CCCCCCCCCCCCCC(=O)Oc1ccc([N+](=O)[O-])cc1; test: purified protein; conditions: myristate bound to Serβ[…]

T1 sequence (Q9I194 24-193): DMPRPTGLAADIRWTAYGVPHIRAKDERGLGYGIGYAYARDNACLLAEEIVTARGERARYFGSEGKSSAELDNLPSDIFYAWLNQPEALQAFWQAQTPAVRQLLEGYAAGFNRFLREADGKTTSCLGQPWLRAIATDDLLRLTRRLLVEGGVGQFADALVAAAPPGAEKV
T1 sequence (Q9I194 217-762): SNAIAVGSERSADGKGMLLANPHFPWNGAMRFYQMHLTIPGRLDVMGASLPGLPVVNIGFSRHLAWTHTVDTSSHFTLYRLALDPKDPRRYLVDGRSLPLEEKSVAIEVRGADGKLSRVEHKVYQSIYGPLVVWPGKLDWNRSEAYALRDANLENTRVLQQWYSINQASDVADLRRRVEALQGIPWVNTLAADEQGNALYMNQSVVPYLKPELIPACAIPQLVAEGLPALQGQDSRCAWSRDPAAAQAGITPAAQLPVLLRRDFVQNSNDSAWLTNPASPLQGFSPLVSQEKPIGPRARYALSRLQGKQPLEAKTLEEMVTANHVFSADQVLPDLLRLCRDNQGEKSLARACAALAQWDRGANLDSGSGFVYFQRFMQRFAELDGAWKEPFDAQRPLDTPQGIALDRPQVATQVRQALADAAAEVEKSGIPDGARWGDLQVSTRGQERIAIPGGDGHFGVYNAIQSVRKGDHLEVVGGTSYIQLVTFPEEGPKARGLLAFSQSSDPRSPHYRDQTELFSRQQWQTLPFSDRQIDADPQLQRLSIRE

CCCCCCCCCCCCCC(=O)O [C14, myristate]
CPM (×10^3) ^a (PvdL module 1 (PvdLM1)): 160.0 ± 14.1 CPM (×10^3)

O=c1onc2n1-c1cc(Br)ccc1OC2 [compound 922, 4H-8-Bromo-1,2,4-oxadiazolo[3,4-d]benz[b][1,4]oxazin-1-one]
IC50 (PvdQ [1]): 145 µM

CCCCCCCC(=O)O [octanoate]
crystal structure, co-purified ligand (PvdQ [2]): co-purifying octanoate molecule bound non-covalently in the fatty acid binding pocket

PvdQ (Pseudomonas aeruginosa PAO1)
Km [3]: 11400 µM
kcat [3]: 1.99 s⁻¹
kcat/Km [3]: 175 M⁻¹ s⁻¹
Km [4]: 750 µM
kcat [4]: 1.24 s⁻¹
kcat/Km [4]: 1660 M⁻¹ s⁻¹
Km [5]: 1400 µM
kcat [5]: 0.74 s⁻¹
kcat/Km [5]: 521 M⁻¹ s⁻¹
